Results published in publication PMC3424567.

T1: R.DpnI wH domain (UniProt P0A460 181-254)
T1 sequence: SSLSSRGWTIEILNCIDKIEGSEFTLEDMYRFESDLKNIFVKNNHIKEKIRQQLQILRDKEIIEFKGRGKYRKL

T2: R.DpnI R231A (UniProt P0A460 1-254, R231A)
T2 sequence: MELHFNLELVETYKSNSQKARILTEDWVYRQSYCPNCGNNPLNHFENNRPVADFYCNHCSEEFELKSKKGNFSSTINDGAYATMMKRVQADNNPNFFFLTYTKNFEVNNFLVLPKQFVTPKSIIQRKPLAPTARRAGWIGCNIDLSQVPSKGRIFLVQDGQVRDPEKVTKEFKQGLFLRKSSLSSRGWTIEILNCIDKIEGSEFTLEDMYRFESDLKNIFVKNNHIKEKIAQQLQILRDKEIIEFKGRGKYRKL


Key:
R.DpnI wH domain = biological target: T1, R.DpnI wH domain; test: filter binding
R.DpnI R231A = biological target: T2, R.DpnI R231A; test: filter binding

Row | Binder | binding signal (R.DpnI wH domain) [counts] | binding result (R.DpnI R231A)
1 | mDNA (dsDNA, m6A at position 8 of strand 1 and position 13 of strand 2 (5'-3')) DNA 1: ATATGGGATCGTCAGTCAGCG DNA 2: CGCTGACTGACGATCCCATAT | 2e+06 | –
2 | nmDNA (dsDNA) DNA 1: ATATGGGATCGTCAGTCAGCG DNA 2: CGCTGACTGACGATCCCATAT | – | no binding
3 | hmDNA (dsDNA, m6A in GATC on one strand only (which strand not recoverable from text)) DNA 1: ATATGGGATCGTCAGTCAGCG DNA 2: CGCTGACTGACGATCCCATAT | – | no binding
